Positions count from the first letter of the chain named. In names and notes the source's numbering stands.
T1: EsCas13d, nuclease-dead (Eubacterium siraeum, UniProt B0MS50, R295A;H300A;R849A;H854A)
T1 sequence: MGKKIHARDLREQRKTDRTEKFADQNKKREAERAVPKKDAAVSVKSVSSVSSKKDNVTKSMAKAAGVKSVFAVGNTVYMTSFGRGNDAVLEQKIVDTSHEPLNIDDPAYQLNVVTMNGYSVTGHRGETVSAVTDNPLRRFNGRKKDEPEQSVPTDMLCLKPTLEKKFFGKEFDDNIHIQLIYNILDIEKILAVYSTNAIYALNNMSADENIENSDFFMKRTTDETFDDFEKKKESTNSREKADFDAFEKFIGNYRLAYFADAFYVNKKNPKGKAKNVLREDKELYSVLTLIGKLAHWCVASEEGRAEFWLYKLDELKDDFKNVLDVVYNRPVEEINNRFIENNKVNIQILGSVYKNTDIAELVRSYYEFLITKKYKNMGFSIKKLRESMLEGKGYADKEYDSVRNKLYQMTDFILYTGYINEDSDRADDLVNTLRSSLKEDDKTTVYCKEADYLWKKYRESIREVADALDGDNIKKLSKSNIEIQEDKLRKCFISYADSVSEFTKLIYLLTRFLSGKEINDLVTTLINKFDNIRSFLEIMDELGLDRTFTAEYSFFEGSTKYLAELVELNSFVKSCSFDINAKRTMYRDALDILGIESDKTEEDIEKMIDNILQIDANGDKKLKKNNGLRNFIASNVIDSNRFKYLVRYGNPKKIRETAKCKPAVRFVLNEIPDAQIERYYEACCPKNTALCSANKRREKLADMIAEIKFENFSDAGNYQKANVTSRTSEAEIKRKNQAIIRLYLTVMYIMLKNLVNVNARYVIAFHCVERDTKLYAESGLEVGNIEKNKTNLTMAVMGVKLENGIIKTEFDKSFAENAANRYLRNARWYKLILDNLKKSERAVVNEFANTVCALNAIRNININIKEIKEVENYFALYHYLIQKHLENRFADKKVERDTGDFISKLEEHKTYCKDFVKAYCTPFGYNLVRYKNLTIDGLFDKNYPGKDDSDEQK

B1: target 1 C2U,A20C (mixed)
RNA 1: CACCCGUGCAAAAAUGCAGGGGUCUAAAACUGAGCGGAUAACCUCUCUAUGG
RNA 2: GGGAAUGGAUCCACAUCUACGAAUUCGUACCCUAGAGAGGUUAUCCGCUUACCGAGAUCGGAAGAGCACACGU
B2: target 1 U3A,U10A (mixed)
RNA 1: B1 RNA 1
RNA 2: B1 RNA 2 with C32A, U42A, U49A, U50C
B3: target 1 insC 3' of 10,insG 3' of 2 (mixed)
RNA 1: B1 RNA 1
RNA 2: GGGAAUGGAUCCACAUCUACGAAUUCGUACCAUAGAGAGGUUCAUCCGCUCGACCGAGAUCGGAAGAGCACACGU
B4: target 1 insC 3' of 11,insU 3' of 1 (mixed)
RNA 1: B1 RNA 1
RNA 2: B3 RNA 2 with U42C, C43U, G52A, A53U
B5: target 1 C4U,G5U (mixed)
RNA 1: B1 RNA 1
RNA 2: B1 RNA 2 with C32A, G47U, C48U, U50C
B6: target 1 A18C (mixed)
RNA 1: B1 RNA 1
RNA 2: B1 RNA 2 with C32A, A34C, U50C
B7: target 1 A1G,C4A (mixed)
RNA 1: B1 RNA 1
RNA 2: B1 RNA 2 with C32A, C48A, U50C, A51G
B8: target 1 insC 3' of 12,insU 3' of 2 (mixed)
RNA 1: B1 RNA 1
RNA 2: B3 RNA 2 with U41C, C43U, G52U
B9: target 1 insU 3' of 9,insU 3' of 2 (mixed)
RNA 1: B1 RNA 1
RNA 2: B3 RNA 2 with C43A, A44U, G52U
B10: target 1 insU 3' of 17,insU 3' of 1 (mixed)
RNA 1: B1 RNA 1
RNA 2: B3 RNA 2 with A36U, G37A, A38G, G39A, U41G, C43U, G52A, A53U
B11: target 1 C4G,A16C (mixed)
RNA 1: B1 RNA 1
RNA 2: B1 RNA 2 with C32A, A36C, C48G, U50C
B12: target 1 A16G,C21U (mixed)
RNA 1: B1 RNA 1
RNA 2: B1 RNA 2 with C31U, C32A, A36G, U50C
B13: target 1 A14C,G15A (mixed)
RNA 1: B1 RNA 1
RNA 2: B1 RNA 2 with C32A, G37A, A38C, U50C
B14: target 1 insU 3' of 18,insU 3' of 17 (mixed)
RNA 1: B1 RNA 1
RNA 2: GGGAAUGGAUCCACAUCUACGAAUUCGUACCAUAUGUAGAGGUUAUCCGCUCACCGAGAUCGGAAGAGCACACGU
B15: target 1 U3G,A14G (mixed)
RNA 1: B1 RNA 1
RNA 2: B1 RNA 2 with C32A, A38G, U49G, U50C
B16: target 1 insC 3' of 20,insU 3' of 6 (mixed)
RNA 1: B1 RNA 1
RNA 2: GGGAAUGGAUCCACAUCUACGAAUUCGUACCACUAGAGAGGUUAUCCUGCUCACCGAGAUCGGAAGAGCACACGU
B17: target 1 C4G,G12U (mixed)
RNA 1: B1 RNA 1
RNA 2: B1 RNA 2 with C32A, G40U, C48G, U50C
B18: target 1 insC 3' of 10,insC 3' of 9 (mixed)
RNA 1: B1 RNA 1
RNA 2: B3 RNA 2 with U45C, C46U, G48C, C49G, U50C, C51U, G52C
B19: target 1 A1C,A18C (mixed)
RNA 1: B1 RNA 1
RNA 2: B1 RNA 2 with C32A, A34C, U50C, A51C
B20: target 1 G5A,G13C (mixed)
RNA 1: B1 RNA 1
RNA 2: B1 RNA 2 with C32A, G39C, G47A, U50C
B21: target 1 insU 3' of 13,insC 3' of 8 (mixed)
RNA 1: B1 RNA 1
RNA 2: B3 RNA 2 with G40U, U41G, C43U, G48C, C49G, U50C, C51U, G52C
B22: target 1 C7G,A16G (mixed)
RNA 1: B1 RNA 1
RNA 2: B1 RNA 2 with C32A, A36G, C45G, U50C
B23: target 1 A1U,A18C (mixed)
RNA 1: B1 RNA 1
RNA 2: B1 RNA 2 with C32A, A34C, U50C, A51U
B24: target 1 C7U,G12U (mixed)
RNA 1: B1 RNA 1
RNA 2: B1 RNA 2 with C32A, G40U, C45U, U50C
B25: target 1 insG 3' of 11,insC 3' of 9 (mixed)
RNA 1: B1 RNA 1
RNA 2: B14 RNA 2 with U35G, G36A, U37G, A40G, G41U, U44A, A45C
B26: target 1 insU 3' of 6,insU 3' of 4 (mixed)
RNA 1: B1 RNA 1
RNA 2: B3 RNA 2 with C43A, A44U, U45C, C47U, C51U, G52C
B27: target 1 A1C,A20C (mixed)
RNA 1: B1 RNA 1
RNA 2: B1 RNA 2 with U50C, A51C
B28: target 1 C6A,A9G (mixed)
RNA 1: B1 RNA 1
RNA 2: B1 RNA 2 with C32A, A43G, C46A, U50C
B29: target 1 C7G,U10G (mixed)
RNA 1: B1 RNA 1
RNA 2: B1 RNA 2 with C32A, U42G, C45G, U50C
B30: target 1 C2A,G17A (mixed)
RNA 1: B1 RNA 1
RNA 2: B1 RNA 2 with C32A, G35A, U50A
B31: target 1 C6G,A18C (mixed)
RNA 1: B1 RNA 1
RNA 2: B1 RNA 2 with C32A, A34C, C46G, U50C
B32: target 1 insU 3' of 13,insG 3' of 4 (mixed)
RNA 1: B1 RNA 1
RNA 2: B3 RNA 2 with G40U, U41G, C43U, U50G, C51U, G52C
B33: target 1 insA 3' of 7,insG 3' of 1 (mixed)
RNA 1: B1 RNA 1
RNA 2: B3 RNA 2 with C43A, A44U, U45C, C46A, G52A, A53G
B34: target 1 A1G,A18C (mixed)
RNA 1: B1 RNA 1
RNA 2: B1 RNA 2 with C32A, A34C, U50C, A51G

These binders were tested against T1, EsCas13d, nuclease-dead (assay: crRNA (strand 1, pre-loaded); Mg2+; 40 mM Tris-HCl pH 7.5, 150 mM NaCl, 6 mM MgCl2, 1 mM DTT, 0.1% Tween-20, 0.2 mg/ml BSA; 25 C; 10 min per concentration, then washed). Settings: tags: His6-TwinStrep-SUMO cleaved; N-terminal SNAP kept (SNAP-Surface 488); label: 3' end held by stalled T7 RNA polymerase.

Binder	Kd [nM]
B1	31.4 ± 1.6
B2	21.2 ± 2.5
B3	24.8 ± 2.1
B4	35 ± 8
B5	49 ± 4
B6	51.3 ± 3.5
B7	4.5 ± 0.4
B8	12.2 ± 0.8
B9	20.2 ± 1
B10	22.4 ± 2.3
B11	39 ± 5
B12	7.65 ± 0.33
B13	32 ± 2.8
B14	47 ± 8
B15	12.9 ± 1.2
B16	11.3 ± 0.9
B17	9.5 ± 1.6

Binder	Kd [nM]
B18	14.9 ± 0.6
B19	75 ± 29
B20	50 ± 7
B21	14.7 ± 1.6
B22	34 ± 4
B23	66 ± 12
B24	13.4 ± 1.1
B25	31.4 ± 2.2
B26	10.3 ± 0.8
B27	32 ± 4
B28	11.5 ± 0.6
B29	20 ± 0.8
B30	47 ± 6
B31	62 ± 8
B32	14.2 ± 2
B33	6.8 ± 0.4
B34	62 ± 8
